Reference: US20180142023A1 (Bristol-Myers Squibb, published 2018)

Molecular target: human CD28 (human, UniProt P10747 19-220)
Test: cell-based or functional assay

B1: 1h-76 (other)
VL: DIQMTQSPSSLSASVGDRVTITCRASQYIGTRLVWYQQKPGKAPKLLIYQSSLLQSGVPSRFRGSGSGTDFTLTISSLQPEDSATYYCQQTALVPYTFGQGTKVEIKR
- Luciferase assay (EC50): 1800 nM
